The target in one data set is Ddn (Mycobacterium tuberculosis, UniProt P9WP15). Nature of the data set: F420H2 oxidation, absorbance at […] nm.
The test system of data set [1] is COC1=C(OC)C(=O)C(CC=C(C)C)=C(C)C1=O. Nature of the data set: purified protein. Conditions: pH 8.0.
A further data set concerns CC1=CC(=O)c2ccccc2C1=O. Nature of the data set: purified protein.
The subject of data set [2] is CC1=C(C)C(=O)c2ccccc2C1=O. Nature of the data set: purified protein. To be noted: pH 8.0.
Data set [3] has as its system COC1=C(OC)C(=O)C(C/C=C(\C)CCC=C(C)C)=C(C)C1=O. The data set is described as follows: purified protein. To be noted: pH 8.0.
The test system of data set [4] is COC1=C(OC)C(=O)C(C)=CC1=O. Nature of the data set: purified protein. To be noted: pH 8.0.
Where [5] appears, read: co-substrate 100 μM F420H2, 200 mM Tris-HCl pH 8.0, 0.01% Triton X-100.

Like-named read-outs stand apart in the source and are kept apart here.

The values below come from publication PMC3567243 (Molecular Microbiology, 2012).

Chain of Ddn (P9WP15 whole entry): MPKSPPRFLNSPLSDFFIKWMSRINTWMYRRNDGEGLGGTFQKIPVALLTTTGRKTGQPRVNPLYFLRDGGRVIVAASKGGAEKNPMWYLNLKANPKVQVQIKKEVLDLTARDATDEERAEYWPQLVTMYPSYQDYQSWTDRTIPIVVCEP

For the molecule `CC1=CC(=O)c2c(O)cccc2C1=O` [Plumbagin], the Km on Ddn (setting [5]) came to 2170 ± 2740 nM.
`O=[N+]([O-])c1cn2c(n1)OC[C@@H](OCc1ccc(OC(F)(F)F)cc1)C2` [PA-824]: the Km on Ddn came to 28600 ± 3550 nM.
Consider `O=C1C=CC(=O)c2ccccc21` [1,4-naphthoquinone], for which the Michaelis-Menten constant (Km) on Ddn (setting [5]) was 2230 ± 1190 nM.
On to (Mycobacterium tuberculosis H37Rv), for which the Km in data set [1] turned out to be 10.12 ± 2.23 µM; in the data set on CC1=CC(=O)c2ccccc2C1=O, 2.09 ± 0.91 µM; in the data set on CC1=CC(=O)c2ccccc2C1=O (pH 8.0), 3.44 ± 1.27 µM; in data set [2] it was 2.21 ± 0.98 µM; in data set [3] it was 3.14 ± 0.97 µM; in data set [4] it was 12.35 ± 2.65 µM. Besides, the kcat/Km stood at 3500 M⁻¹ s⁻¹ in data set [1]; 255000 M⁻¹ s⁻¹ in the data set on CC1=CC(=O)c2ccccc2C1=O; 86000 M⁻¹ s⁻¹ with CC1=CC(=O)c2ccccc2C1=O (pH 8.0); 40500 M⁻¹ s⁻¹ in data set [2]; 28800 M⁻¹ s⁻¹ in data set [3]; 1670 M⁻¹ s⁻¹ in data set [4].

Usually Km stands for the concentration of substrate that gives half-maximal velocity. Broadly, the kcat/Km is the second-order rate constant that governs catalysis at low substrate concentration.
